Reference: IntAct's records for PubMed 28827714

B1: Interleukin-17F (Homo sapiens), Q96PD4 (parent)
chain: MTVKTLHGPAMVKYLLLSILGLAFLSEAAARKIPKVGHTFFQKPESCPPVPGGSMKLDIGIINENQRVSMSRNIESRSTSPWNYTVTWDPNRYPSEVVQAQCRNLGCINAQGKEDISMNSVPIQQETLVVRRKHQGCSVSFQLEKVLVTVGCTCVTPVIHHVQ
partner: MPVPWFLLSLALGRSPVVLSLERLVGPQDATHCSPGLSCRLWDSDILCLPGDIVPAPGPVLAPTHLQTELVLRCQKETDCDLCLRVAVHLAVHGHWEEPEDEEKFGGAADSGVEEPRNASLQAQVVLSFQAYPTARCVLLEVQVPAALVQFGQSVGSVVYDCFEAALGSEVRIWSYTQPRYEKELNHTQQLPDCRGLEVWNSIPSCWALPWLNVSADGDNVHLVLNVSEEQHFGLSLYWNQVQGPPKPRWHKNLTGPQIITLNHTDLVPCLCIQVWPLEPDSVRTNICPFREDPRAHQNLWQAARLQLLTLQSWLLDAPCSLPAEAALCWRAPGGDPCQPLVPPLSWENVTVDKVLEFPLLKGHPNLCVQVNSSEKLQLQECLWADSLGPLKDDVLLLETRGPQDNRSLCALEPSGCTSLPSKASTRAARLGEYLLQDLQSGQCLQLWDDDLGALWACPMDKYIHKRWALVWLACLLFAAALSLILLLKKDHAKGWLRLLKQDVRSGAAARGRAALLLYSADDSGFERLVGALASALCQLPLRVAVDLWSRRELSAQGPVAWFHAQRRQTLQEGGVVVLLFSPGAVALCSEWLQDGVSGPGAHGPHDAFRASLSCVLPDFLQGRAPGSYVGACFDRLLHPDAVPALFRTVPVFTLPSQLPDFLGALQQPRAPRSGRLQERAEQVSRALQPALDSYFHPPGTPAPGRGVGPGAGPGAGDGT
B2: Interleukin-17F (Homo sapiens), Q96PD4 (parent)
chain: B1 chain

Variants of: B1
Conditions: with IL17RC

effect of a mutation on the interaction	Variant
decreasing interaction strength	MTVKTLHGPAMVKYLLLSILGLAFLSEAAARKIPKVGHTFFQKPESCPPVPGGSMKLDIGIINENQRVSMSRNIESASTSPWNYTVTWDPNRYPSEVVQAQCRNLGCINAQGKEDISMNSVPIQQETLVVRRKHQGCSVSFQLEKVLVTVGCTCVTPVIHHVQ [R77A]

Variants of: B2
Conditions: with IL17RA

effect of a mutation on the interaction	Variant
decreasing interaction strength	MTVKTLHGPAMVKYLLLSILGLAFLSEAAARKIPKVGHTFFQKPESCPPVPGGSMKLDIGIINENQRVSMSRNIESASTSPWNYTVTWDPNRYPSEVVQAQCRNLGCINAQGKEDISMNSVPIQQETLVVRRKHQGCSVSFQLEKVLVTVGCTCVTPVIHHVQ [R77A]
